From article PMC4833948

Legend:
[1] = target: hNHE1cdt D1D2-(AXA)2 (human) (UniProt P19634)
hNHE1cdt F2-AA (human) = hNHE1cdt F2-AA (human) (UniProt P19634)
hNHE1cdt F1-A (human) = hNHE1cdt F1-A (human) (UniProt P19634)
hNHE1cdt D3-AXA (human) = hNHE1cdt D3-AXA (human) (UniProt P19634)
[2] = target: human NHE1 C-terminal distal tail, M + I680-Q815 (hNHE1cdt WT) (human) (UniProt P19634)

Q: “active ERK2 (aERK2) (from UniProt P28482 1-360) (enzyme)” was tested. Which k app of phosphorylation of S693 of hNHE1cdt by aERK2 (time-resolved NMR, 25 °C) [1] did it give?
A: The k app of phosphorylation of S693 of hNHE1cdt by aERK2 (time-resolved NMR, 25 °C) was 0.319 h⁻¹.

Q: What about the k app of phosphorylation of S723/S726 of hNHE1cdt by aERK2 (decrease of the S723 peak; time-resolved NMR, 25 °C) [1] of the same substance?
A: Its k app of phosphorylation of S723/S726 of hNHE1cdt by aERK2 (decrease of the S723 peak; time-resolved NMR, 25 °C) is 0.061 h⁻¹.

Q: And the k app of phosphorylation of S771 of hNHE1cdt by aERK2 (time-resolved NMR, 25 °C) [1]?
A: Its k app of phosphorylation of S771 of hNHE1cdt by aERK2 (time-resolved NMR, 25 °C) is 0.0066 h⁻¹.

Q: What about the k app of phosphorylation of S785 of hNHE1cdt by aERK2 (time-resolved NMR, 25 °C) [1] of the same substance?
A: Its k app of phosphorylation of S785 of hNHE1cdt by aERK2 (time-resolved NMR, 25 °C) is 0.0302 h⁻¹.

Q: What about the k app of phosphorylation of T779 of hNHE1cdt by aERK2 (time-resolved NMR, 25 °C) [1] of the same substance?
A: Its k app of phosphorylation of T779 of hNHE1cdt by aERK2 (time-resolved NMR, 25 °C) is 0.157 h⁻¹.

Q: What about the k app of phosphorylation of S693 of hNHE1cdt by aERK2 (time-resolved NMR, 25 °C) (hNHE1cdt F2-AA (human)) of the same substance?
A: Its k app of phosphorylation of S693 of hNHE1cdt by aERK2 (time-resolved NMR, 25 °C) is 0.444 h⁻¹.

Q: What about the k app of phosphorylation of S723/S726 of hNHE1cdt by aERK2 (decrease of the S723 peak; time-resolved NMR, 25 °C) (hNHE1cdt F2-AA (human)) of the same substance?
A: The k app of phosphorylation of S723/S726 of hNHE1cdt by aERK2 (decrease of the S723 peak; time-resolved NMR, 25 °C) was 0.127 h⁻¹.

Q: What about the k app of phosphorylation of S771 of hNHE1cdt by aERK2 (time-resolved NMR, 25 °C) (hNHE1cdt F2-AA (human)) of the same substance?
A: Its k app of phosphorylation of S771 of hNHE1cdt by aERK2 (time-resolved NMR, 25 °C) is 0.0088 h⁻¹.

Q: What about the k app of phosphorylation of S785 of hNHE1cdt by aERK2 (time-resolved NMR, 25 °C) (hNHE1cdt F2-AA (human)) of the same substance?
A: The k app of phosphorylation of S785 of hNHE1cdt by aERK2 (time-resolved NMR, 25 °C) was 0.012 h⁻¹.

Q: And the k app of phosphorylation of T779 of hNHE1cdt by aERK2 (time-resolved NMR, 25 °C) (hNHE1cdt F2-AA (human))?
A: The k app of phosphorylation of T779 of hNHE1cdt by aERK2 (time-resolved NMR, 25 °C) was 0.144 h⁻¹.

Q: What about the k app of phosphorylation of S693 of hNHE1cdt by aERK2 (time-resolved NMR, 25 °C) (hNHE1cdt F1-A (human)) of the same substance?
A: Its k app of phosphorylation of S693 of hNHE1cdt by aERK2 (time-resolved NMR, 25 °C) is 0.3 h⁻¹.

Q: And the k app of phosphorylation of S723/S726 of hNHE1cdt by aERK2 (decrease of the S723 peak; time-resolved NMR, 25 °C) (hNHE1cdt F1-A (human))?
A: Its k app of phosphorylation of S723/S726 of hNHE1cdt by aERK2 (decrease of the S723 peak; time-resolved NMR, 25 °C) is 0.0741 h⁻¹.

Q: And the k app of phosphorylation of S771 of hNHE1cdt by aERK2 (time-resolved NMR, 25 °C) (hNHE1cdt F1-A (human))?
A: Its k app of phosphorylation of S771 of hNHE1cdt by aERK2 (time-resolved NMR, 25 °C) is 0.0047 h⁻¹.

Q: What about the k app of phosphorylation of S785 of hNHE1cdt by aERK2 (time-resolved NMR, 25 °C) (hNHE1cdt F1-A (human)) of the same substance?
A: The k app of phosphorylation of S785 of hNHE1cdt by aERK2 (time-resolved NMR, 25 °C) was 0.0088 h⁻¹.

Q: What about the k app of phosphorylation of T779 of hNHE1cdt by aERK2 (time-resolved NMR, 25 °C) (hNHE1cdt F1-A (human)) of the same substance?
A: Its k app of phosphorylation of T779 of hNHE1cdt by aERK2 (time-resolved NMR, 25 °C) is 0.147 h⁻¹.

Q: What about the k app of phosphorylation of S693 of hNHE1cdt by aERK2 (time-resolved NMR, 25 °C) (hNHE1cdt D3-AXA (human)) of the same substance?
A: The k app of phosphorylation of S693 of hNHE1cdt by aERK2 (time-resolved NMR, 25 °C) was 0.349 h⁻¹.

Q: What about the k app of phosphorylation of S723/S726 of hNHE1cdt by aERK2 (decrease of the S723 peak; time-resolved NMR, 25 °C) (hNHE1cdt D3-AXA (human)) of the same substance?
A: Its k app of phosphorylation of S723/S726 of hNHE1cdt by aERK2 (decrease of the S723 peak; time-resolved NMR, 25 °C) is 0.0592 h⁻¹.

Q: What about the k app of phosphorylation of S771 of hNHE1cdt by aERK2 (time-resolved NMR, 25 °C) (hNHE1cdt D3-AXA (human)) of the same substance?
A: Its k app of phosphorylation of S771 of hNHE1cdt by aERK2 (time-resolved NMR, 25 °C) is 0.007 h⁻¹.

Q: And the k app of phosphorylation of S785 of hNHE1cdt by aERK2 (time-resolved NMR, 25 °C) (hNHE1cdt D3-AXA (human))?
A: Its k app of phosphorylation of S785 of hNHE1cdt by aERK2 (time-resolved NMR, 25 °C) is 0.0325 h⁻¹.

Q: And the k app of phosphorylation of T779 of hNHE1cdt by aERK2 (time-resolved NMR, 25 °C) (hNHE1cdt D3-AXA (human))?
A: The k app of phosphorylation of T779 of hNHE1cdt by aERK2 (time-resolved NMR, 25 °C) was 0.141 h⁻¹.

Q: What about the k app of phosphorylation of S693 of hNHE1cdt by aERK2 (time-resolved NMR, 25 °C) [2] of the same substance?
A: The k app of phosphorylation of S693 of hNHE1cdt by aERK2 (time-resolved NMR, 25 °C) was 0.349 h⁻¹.

Q: And the k app of phosphorylation of S723/S726 of hNHE1cdt by aERK2 (decrease of the S723 peak; time-resolved NMR, 25 °C) [2]?
A: Its k app of phosphorylation of S723/S726 of hNHE1cdt by aERK2 (decrease of the S723 peak; time-resolved NMR, 25 °C) is 0.0821 h⁻¹.

Q: What about the k app of phosphorylation of S771 of hNHE1cdt by aERK2 (time-resolved NMR, 25 °C) [2] of the same substance?
A: Its k app of phosphorylation of S771 of hNHE1cdt by aERK2 (time-resolved NMR, 25 °C) is 0.0088 h⁻¹.

Q: What about the k app of phosphorylation of S785 of hNHE1cdt by aERK2 (time-resolved NMR, 25 °C) [2] of the same substance?
A: The k app of phosphorylation of S785 of hNHE1cdt by aERK2 (time-resolved NMR, 25 °C) was 0.0305 h⁻¹.

Q: What about the k app of phosphorylation of T779 of hNHE1cdt by aERK2 (time-resolved NMR, 25 °C) [2] of the same substance?
A: Its k app of phosphorylation of T779 of hNHE1cdt by aERK2 (time-resolved NMR, 25 °C) is 0.165 h⁻¹.
